This passage reports Kd results from publication PMC4034419, “DNA polymerase hybrids derived from the family-B enzymes of Pyrococcus furiosus and Thermococcus kodakarensis: improving performance in the polymerase chain reaction”.

Holding throughout (assay): fluorescence anisotropy; 20 mM Tris-HCl pH 8.5, 10 mM KCl, 10 mM (NH4)2SO4 (ionic strength 40); 10 nM Hex primer-template; rest of buffer and temperature not in material
What all share (settings): protein: recombinant; label: 5'-hexachlorofluorescein on primer (strand 1); 5' overhang 20 nt on template (strand 2)
Background: In fluorescence polarisation assays a small probe gives low polarisation when free and higher when bound to something large.

The target of data set [1] is T1, Pfu-Pol wild type (family-B DNA polymerase) (Pyrococcus furiosus, UniProt P61875 1-775).
T1 sequence: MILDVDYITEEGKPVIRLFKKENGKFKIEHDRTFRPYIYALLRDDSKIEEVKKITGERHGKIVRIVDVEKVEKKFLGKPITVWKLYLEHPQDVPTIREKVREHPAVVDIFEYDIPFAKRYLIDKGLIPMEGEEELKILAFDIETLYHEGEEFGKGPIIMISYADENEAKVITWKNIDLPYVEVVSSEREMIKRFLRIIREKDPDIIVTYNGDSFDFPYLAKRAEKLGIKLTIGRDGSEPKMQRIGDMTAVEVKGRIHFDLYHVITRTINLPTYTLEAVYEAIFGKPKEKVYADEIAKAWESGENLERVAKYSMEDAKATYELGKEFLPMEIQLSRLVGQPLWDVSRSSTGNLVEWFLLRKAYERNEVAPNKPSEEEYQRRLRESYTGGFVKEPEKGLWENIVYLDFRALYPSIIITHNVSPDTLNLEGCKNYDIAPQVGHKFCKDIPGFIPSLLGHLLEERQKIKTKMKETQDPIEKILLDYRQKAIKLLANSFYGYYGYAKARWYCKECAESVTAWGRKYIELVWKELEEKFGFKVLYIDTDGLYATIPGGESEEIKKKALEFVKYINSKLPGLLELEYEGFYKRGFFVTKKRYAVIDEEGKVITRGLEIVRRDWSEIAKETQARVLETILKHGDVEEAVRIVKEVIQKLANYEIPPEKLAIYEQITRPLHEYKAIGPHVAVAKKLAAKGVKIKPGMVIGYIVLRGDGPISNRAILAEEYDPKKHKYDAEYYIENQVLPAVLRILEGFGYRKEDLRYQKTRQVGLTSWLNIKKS

For data set [2], the target named is T2, Pfu-TkodTS (thumb swap) (Pyrococcus furiosus / Thermococcus …, UniProt P61875 1-590+D0VWU9:590-774, internal_change).
T2 sequence: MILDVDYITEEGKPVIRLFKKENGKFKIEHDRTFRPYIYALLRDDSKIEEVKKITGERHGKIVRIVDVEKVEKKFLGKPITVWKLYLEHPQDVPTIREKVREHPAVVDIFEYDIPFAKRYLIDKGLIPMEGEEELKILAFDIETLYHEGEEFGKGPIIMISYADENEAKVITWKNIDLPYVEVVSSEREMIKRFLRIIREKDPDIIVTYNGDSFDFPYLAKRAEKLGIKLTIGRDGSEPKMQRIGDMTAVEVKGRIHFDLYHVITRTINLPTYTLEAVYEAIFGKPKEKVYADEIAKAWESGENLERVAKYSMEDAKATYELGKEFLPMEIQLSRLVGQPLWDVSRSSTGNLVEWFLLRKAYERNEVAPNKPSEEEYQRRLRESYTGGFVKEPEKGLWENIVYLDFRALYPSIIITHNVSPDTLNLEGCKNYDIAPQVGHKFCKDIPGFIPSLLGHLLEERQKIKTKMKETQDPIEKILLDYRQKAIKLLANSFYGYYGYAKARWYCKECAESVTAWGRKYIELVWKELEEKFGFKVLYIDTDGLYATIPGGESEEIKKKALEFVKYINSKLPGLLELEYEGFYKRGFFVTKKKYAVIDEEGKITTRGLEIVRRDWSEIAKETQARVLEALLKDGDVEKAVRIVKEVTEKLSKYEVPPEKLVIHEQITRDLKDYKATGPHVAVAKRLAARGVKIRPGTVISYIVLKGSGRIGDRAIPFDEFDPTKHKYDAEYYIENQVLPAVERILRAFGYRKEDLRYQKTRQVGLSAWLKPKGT

For data set [3], the target named is T3, Pfu-Pol M247R/L381R (Pyrococcus furiosus, UniProt P61875 1-775, M247R;L381R).
T3 sequence: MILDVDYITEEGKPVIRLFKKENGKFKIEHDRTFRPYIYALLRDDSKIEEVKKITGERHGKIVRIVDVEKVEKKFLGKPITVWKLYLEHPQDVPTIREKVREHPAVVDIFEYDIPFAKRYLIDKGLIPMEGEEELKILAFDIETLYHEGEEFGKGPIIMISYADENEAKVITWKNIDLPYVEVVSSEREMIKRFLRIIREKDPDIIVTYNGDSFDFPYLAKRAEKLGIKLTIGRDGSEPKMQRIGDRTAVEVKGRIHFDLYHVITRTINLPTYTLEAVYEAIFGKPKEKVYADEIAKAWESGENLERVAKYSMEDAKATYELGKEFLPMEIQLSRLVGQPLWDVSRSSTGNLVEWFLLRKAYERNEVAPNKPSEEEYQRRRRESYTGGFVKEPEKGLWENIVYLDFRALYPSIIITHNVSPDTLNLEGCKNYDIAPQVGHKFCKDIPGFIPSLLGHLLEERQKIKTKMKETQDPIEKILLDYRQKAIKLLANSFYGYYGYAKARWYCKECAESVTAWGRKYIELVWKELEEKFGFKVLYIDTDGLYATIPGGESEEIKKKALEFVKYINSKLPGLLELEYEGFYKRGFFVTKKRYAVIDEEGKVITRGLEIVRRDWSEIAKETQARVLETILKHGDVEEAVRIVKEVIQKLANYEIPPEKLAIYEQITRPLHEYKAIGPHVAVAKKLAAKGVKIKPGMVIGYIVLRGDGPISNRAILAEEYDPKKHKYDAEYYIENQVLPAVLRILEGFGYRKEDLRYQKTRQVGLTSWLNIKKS

For data set [4], the target named is T4, Tkod-Pol wild type (family-B DNA polymerase) (Thermococcus kodakarensis, UniProt D0VWU9 1-774).
T4 sequence: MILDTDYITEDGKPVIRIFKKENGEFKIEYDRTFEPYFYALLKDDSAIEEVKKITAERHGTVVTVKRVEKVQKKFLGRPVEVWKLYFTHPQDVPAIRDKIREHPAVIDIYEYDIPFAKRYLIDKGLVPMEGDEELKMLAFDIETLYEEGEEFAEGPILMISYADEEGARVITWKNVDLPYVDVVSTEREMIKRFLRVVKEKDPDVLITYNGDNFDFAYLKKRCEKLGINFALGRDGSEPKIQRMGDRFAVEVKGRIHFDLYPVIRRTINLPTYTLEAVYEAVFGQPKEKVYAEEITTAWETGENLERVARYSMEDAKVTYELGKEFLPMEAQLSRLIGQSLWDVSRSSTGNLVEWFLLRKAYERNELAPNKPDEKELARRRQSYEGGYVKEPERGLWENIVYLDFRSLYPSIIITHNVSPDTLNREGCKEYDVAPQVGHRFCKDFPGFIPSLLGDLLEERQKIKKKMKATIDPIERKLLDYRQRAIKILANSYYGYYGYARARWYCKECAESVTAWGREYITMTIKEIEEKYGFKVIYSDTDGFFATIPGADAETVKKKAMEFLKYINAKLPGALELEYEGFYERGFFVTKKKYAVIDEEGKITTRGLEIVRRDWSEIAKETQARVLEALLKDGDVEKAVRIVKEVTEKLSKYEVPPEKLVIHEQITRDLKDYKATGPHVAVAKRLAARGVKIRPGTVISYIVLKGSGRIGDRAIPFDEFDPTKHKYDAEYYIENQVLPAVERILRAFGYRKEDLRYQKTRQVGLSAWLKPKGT

The target of data set [5] is T5, Pfu-Pol L381R/K502R (Pyrococcus furiosus, UniProt P61875 1-775, L381R;K502R).
T5 sequence: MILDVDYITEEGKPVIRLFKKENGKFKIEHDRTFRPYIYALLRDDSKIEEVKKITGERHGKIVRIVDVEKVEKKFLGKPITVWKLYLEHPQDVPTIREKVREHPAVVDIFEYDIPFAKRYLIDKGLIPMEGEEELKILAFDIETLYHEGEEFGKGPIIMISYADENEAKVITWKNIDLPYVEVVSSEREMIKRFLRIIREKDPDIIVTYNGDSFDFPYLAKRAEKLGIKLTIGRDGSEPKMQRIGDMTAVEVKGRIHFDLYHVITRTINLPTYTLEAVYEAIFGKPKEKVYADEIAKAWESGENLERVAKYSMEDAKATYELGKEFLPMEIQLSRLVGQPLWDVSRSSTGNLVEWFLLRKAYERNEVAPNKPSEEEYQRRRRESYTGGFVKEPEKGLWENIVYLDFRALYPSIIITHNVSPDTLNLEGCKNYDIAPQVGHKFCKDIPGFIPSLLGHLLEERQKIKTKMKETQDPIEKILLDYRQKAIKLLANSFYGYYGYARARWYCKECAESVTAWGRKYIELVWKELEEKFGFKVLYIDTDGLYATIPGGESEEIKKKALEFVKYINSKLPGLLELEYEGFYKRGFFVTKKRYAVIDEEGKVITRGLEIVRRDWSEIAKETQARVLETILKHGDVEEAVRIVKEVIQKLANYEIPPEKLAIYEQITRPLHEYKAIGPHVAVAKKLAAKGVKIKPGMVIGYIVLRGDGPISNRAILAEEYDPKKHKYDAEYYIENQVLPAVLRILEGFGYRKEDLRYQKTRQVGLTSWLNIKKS

Data set [6] concerns the target T6, Pfu-TkodTS L381R/K502R (Pyrococcus furiosus / Thermococcus …, UniProt P61875 1-590+D0VWU9:590-774, L381R;K502R;internal_change).
T6 sequence: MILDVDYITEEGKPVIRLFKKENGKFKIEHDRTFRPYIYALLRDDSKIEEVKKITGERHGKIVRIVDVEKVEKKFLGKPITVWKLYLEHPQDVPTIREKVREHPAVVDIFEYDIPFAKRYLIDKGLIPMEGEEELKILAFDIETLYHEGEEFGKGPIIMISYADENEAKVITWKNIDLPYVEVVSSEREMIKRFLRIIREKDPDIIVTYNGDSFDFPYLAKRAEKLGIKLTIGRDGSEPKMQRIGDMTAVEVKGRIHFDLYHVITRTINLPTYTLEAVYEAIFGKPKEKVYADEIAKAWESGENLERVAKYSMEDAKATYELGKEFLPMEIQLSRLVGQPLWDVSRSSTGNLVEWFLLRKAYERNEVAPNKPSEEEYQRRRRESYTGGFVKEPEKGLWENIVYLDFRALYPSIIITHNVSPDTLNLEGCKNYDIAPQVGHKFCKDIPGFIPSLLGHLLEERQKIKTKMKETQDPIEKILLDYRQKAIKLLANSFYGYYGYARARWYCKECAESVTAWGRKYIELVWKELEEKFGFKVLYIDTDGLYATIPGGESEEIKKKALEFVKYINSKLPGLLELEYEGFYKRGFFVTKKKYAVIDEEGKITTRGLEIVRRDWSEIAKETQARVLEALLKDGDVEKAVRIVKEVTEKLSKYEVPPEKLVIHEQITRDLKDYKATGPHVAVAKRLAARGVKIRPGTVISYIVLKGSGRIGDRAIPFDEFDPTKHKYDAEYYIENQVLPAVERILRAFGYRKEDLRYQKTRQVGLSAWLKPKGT

A word on the Kd: it is the equilibrium constant for the complex coming apart.

B1: Hex primer-template (24/44) (dsDNA)
DNA 1: GGGGATCCTCTAGAGTCGACCTGC
DNA 2: GGAGACAAGCTTGCTTGCCAGCAGGTCGACTCTAGAGGATCCCC
Consider B1, for which the Kd worked out at 251 ± 23 nM in data set [1]; 95 ± 7 nM in data set [2]; 70 ± 9 nM in data set [3]; 276 ± 18 nM in data set [4]; 107 ± 13 nM in data set [5]; 50 ± 7 nM in data set [6].
